The target of the test is I-A^b (MHCII) of murine bone marrow-derived dendritic cells from C57BL/6J mice (mouse) (UniProt P14434). The experiment in a line: MHCII peptidomics: Y3P IP of peptide-MHCII from BMDCs exposed to live Listeria, iTRAQ LC-MS/MS. The following applies: scale: log2 fold change, Listeria 6 hr versus 10 min.

As to “Listeria peptide mNRVmLPLQQmGAKMHGK (lmo1923 (aroE))”, the logFC is 0.145.

These data come from US20220293215A1.
